Measurements from US20090018093.

Test system: Immunoglobulin E (IgE) (Homo sapiens), P01854-1
Assay: filter

Immunoglobulin E (IgE) (Homo sapiens), P01854-1, sequence (P01854 other isoform, or with tags, fused parts or gaps): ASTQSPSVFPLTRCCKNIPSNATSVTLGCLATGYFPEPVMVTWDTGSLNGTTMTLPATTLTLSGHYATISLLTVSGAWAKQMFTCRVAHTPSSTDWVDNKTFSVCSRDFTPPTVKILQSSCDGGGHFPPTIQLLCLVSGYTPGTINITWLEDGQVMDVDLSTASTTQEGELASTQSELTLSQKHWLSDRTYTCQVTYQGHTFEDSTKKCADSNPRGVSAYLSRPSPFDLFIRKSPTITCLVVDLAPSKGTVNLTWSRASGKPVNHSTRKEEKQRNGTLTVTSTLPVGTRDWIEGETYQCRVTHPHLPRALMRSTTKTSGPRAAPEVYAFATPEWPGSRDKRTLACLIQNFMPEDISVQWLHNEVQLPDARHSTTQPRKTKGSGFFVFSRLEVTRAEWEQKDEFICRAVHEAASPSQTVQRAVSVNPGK

GGGGCTACTTTATCCGTTCCTCCTAGTGGGTAGCCCCN [ARC1280]
Kd (2'-OMe at 16, 3' idT, DPBS Mg/Ca, BSA): 0.6 nM

GGGGCTACTTTATCCGTTCCTCCTAGTGGGTAGCCCCN [ARC1283]
Kd (2'-OMe at 19, 3' idT, DPBS Mg/Ca, BSA): 0.6 nM

GGGGCTACTTTATCCGTTCCTCCTAGTGGGTAGCCCCN [ARC1284]
Kd (2'-OMe at 20, 3' idT, DPBS Mg/Ca, BSA): 0.1 nM

GGGGCTACTTTATCCGTTCCTCCTAGTGGGTAGCCCCN [ARC1287]
Kd (2'-OMe at 23, 3' idT, DPBS Mg/Ca, BSA): 1 nM

GGGGCTACTTTATCCGTTCCTCCTAGTGGGTAGCCCCN [ARC1294]
Kd (2'-OMe at 30, 3' idT, DPBS Mg/Ca, BSA): 8 nM

GGGGCTACTTTATCCGTTCCTCCTAGTGGGTAGCCCCN [ARC1296]
Kd (2'-OMe at 32, 3' idT, DPBS Mg/Ca, BSA): 1.2 nM

GGGGCTACTTTATCCGTTCCTCCTAGTGGGTAGCCCCN [ARC1297]
Kd (2'-OMe at 33, 3' idT, DPBS Mg/Ca, BSA): 0.8 nM

GGGGCTACTTTATCCGTTCCTCCTAGTGGGTAGCCCCT [ARC656]
Kd (3' idT [38 = 3' inverted dT], dPBS Ca/Mg + BSA): 0.2 nM

GGGGCTACTTTATCCGTTCCTCCTAGTGGGTAGCCCCT [ARC1265]
Kd (2'-OMe at 1, 3' idT [1=2'-OMe G, 38=3' inverted dT], DPBS Mg/Ca, BSA): 0.2 nM

GGGGCTACTTTATCCGTTCCTCCTAGTGGGTAGCCCCT [ARC1266]
Kd (2'-OMe at 2, 3' idT [2 (2'-OMe G), 38 (3' inverted dT)], DPBS Mg/Ca, BSA): 0.2 nM

GGGGCTACTTTATCCGTTCCTCCTAGTGGGTAGCCCCT [ARC1267]
Kd (2'-OMe at 3, 3' idT [3 (2'-OMe G), 38 (3' inverted dT)], DPBS Mg/Ca, BSA): 0.1 nM

GGGGCTACTTTATCCGTTCCTCCTAGTGGGTAGCCCCT [ARC1268]
Kd (2'-OMe at 4, 3' idT [4 (2'-OMe G), 38 (3' inverted dT)], DPBS Mg/Ca, BSA): 0.2 nM

GGGGCTACTTTATCCGTTCCTCCTAGTGGGTAGCCCCT [ARC1269]
Kd (2'-OMe at 5, 3' idT [5 (2'-OMe C), 38 (3' inverted dT)], DPBS Mg/Ca, BSA): 0.3 nM

GGGGCTACTTTATCCGTTCCTCCTAGTGGGTAGCCCCT [ARC1271]
Kd (2'-OMe at 7, 3' idT [7 (2'-OMe A), 38 (3' inverted dT)], DPBS Mg/Ca, BSA): 0.2 nM

GGGGCTACTTTATCCGTTCCTCCTAGTGGGTAGCCCCT [ARC1272]
Kd (2'-OMe at 8, 3' idT [8 (2'-OMe C), 38 (3' inverted dT)], DPBS Mg/Ca, BSA): 0.2 nM

GGGGCTACTTTATCCGTTCCTCCTAGTGGGTAGCCCCT [ARC1276]
Kd (2'-OMe at 12, 3' idT [12 (2'-OMe A), 38 (3' inverted dT)], DPBS Mg/Ca, BSA): 3 nM

GGGGCTACTTTATCCGTTCCTCCTAGTGGGTAGCCCCT [ARC1278]
Kd (2'-OMe at 14, 3' idT [14 (2'-OMe C), 38 (3' inverted dT)], DPBS Mg/Ca, BSA): 2 nM

GGGGCTACTTTATCCGTTCCTCCTAGTGGGTAGCCCCT [ARC1279]
Kd (2'-OMe at 15, 3' idT [15 (2'-OMe C), 38 (3' inverted dT)], DPBS Mg/Ca, BSA): 0.8 nM

GGGGCTACTTTATCCGTTCCTCCTAGTGGGTAGCCCCT [ARC1286]
Kd (DNA with 2'-OMe C22, 3' idT [2'-OMe C22, 3' inverted dT38], dPBS Ca/Mg + BSA): 7 nM

GGGGCTACTTTATCCGTTCCTCCTAGTGGGTAGCCCCT [ARC1292]
Kd (DNA with 2'-OMe G28, 3' idT [2'-OMe G28, 3' inverted dT at 38], dPBS Ca/Mg + BSA): 22 nM

GGGGCTACTTTATCCGTTCCTCCTAGTGGGTAGCCCCT [ARC1298]
Kd (2'-OMe at 34, 3' idT [2'-OMe: 34, 38 = 3' inverted dT], DPBS Mg/Ca, BSA): 0.4 nM

GGGGCTACTTTATCCGTTCCTCCTAGTGGGTAGCCCCT [ARC1299]
Kd (2'-OMe at 35, 3' idT [2'-OMe: 35, 38 = 3' inverted dT], DPBS Mg/Ca, BSA): 0.5 nM

GGGGCTACTTTATCCGTTCCTCCTAGTGGGTAGCCCCT [ARC1300]
Kd (2'-OMe at 36, 3' idT [2'-OMe: 36, 38 = 3' inverted dT], DPBS Mg/Ca, BSA): 0.7 nM

GGGGCTACTTTATCCGTTCCTCCTAGTGGGTAGCCCCT [ARC1301]
Kd (2'-OMe at 37, 3' idT [2'-OMe: 37, 38 = 3' inverted dT], DPBS Mg/Ca, BSA): 0.5 nM
